# Data taken from article PMC9482650, “Quantitative fragmentomics allow affinity mapping of interactomes” (Nature Communications, 2022).
# T1: APBA3_1, O96018
# T1 sequence (O96018 389-490, limits assumed, looked up): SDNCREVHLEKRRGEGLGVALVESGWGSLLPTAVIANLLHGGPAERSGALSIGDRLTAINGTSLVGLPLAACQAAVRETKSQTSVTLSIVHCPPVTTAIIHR
# T2: DFNB31_1, Q9P202
# T2 sequence (Q9P202 135-233, limits assumed, looked up): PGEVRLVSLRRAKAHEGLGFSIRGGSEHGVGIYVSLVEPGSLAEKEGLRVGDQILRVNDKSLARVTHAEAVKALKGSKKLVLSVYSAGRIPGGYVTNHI
# T3: DFNB31_3, Q9P202
# T3 sequence (Q9P202 811-907, limits assumed, looked up): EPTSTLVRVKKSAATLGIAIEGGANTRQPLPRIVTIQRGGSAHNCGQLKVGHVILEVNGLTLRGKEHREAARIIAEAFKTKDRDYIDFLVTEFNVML
# T4: GRIP1_2, Q9Y3R0
# T4 sequence (Q9Y3R0 145-248, limits assumed, looked up): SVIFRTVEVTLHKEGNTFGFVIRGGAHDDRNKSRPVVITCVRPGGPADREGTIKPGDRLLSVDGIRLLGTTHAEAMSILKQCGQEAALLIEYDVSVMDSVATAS
# T5: GRIP1_4, Q9Y3R0
# T5 sequence (Q9Y3R0 467-571, limits assumed, looked up): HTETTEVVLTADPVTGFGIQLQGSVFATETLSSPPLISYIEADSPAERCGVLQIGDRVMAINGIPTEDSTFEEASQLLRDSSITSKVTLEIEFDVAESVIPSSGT
# T6: GRIP1_7, Q9Y3R0
# T6 sequence (Q9Y3R0 999-1096, limits assumed, looked up): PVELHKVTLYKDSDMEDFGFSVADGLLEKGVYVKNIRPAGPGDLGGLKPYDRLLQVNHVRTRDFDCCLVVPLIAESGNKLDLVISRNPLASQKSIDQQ
# T7: MPDZ_5, O75970
# T7 sequence (O75970 695-796, limits assumed, looked up): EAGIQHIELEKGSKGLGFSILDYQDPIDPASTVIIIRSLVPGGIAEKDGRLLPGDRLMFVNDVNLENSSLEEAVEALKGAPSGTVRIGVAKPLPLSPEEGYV
# T8: MPP2, Q14168
# T8 sequence (Q14168 180-250, limits assumed, looked up): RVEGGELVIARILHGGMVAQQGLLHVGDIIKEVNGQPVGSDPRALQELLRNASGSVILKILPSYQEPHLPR
# T9: SHANK1, Q9Y566
# T9 sequence (Q9Y566 658-767, limits assumed, looked up): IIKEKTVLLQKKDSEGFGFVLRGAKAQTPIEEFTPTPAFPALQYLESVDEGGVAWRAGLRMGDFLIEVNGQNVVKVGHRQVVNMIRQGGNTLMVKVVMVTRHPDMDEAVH
# T10: SIPA1L2, Q9P2F8
# T10 sequence (Q9P2F8 945-1036, limits assumed, looked up): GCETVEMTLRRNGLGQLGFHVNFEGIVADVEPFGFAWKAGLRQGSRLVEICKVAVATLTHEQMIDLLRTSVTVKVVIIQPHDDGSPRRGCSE
# T11: TIAM2, Q8IVF5
# T11 sequence (Q8IVF5 885-986, limits assumed, looked up): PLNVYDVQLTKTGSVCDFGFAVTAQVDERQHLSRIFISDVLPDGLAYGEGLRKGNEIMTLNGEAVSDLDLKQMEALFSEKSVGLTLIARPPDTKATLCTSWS
# T12: TJP3_3, O95049
# T12 sequence (O95049 375-456, limits assumed, looked up): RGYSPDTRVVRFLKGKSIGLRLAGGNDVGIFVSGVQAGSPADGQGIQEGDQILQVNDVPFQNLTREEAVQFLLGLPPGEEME
# B1: ARHGAP17, Q68EM7 (peptide)
# chain: IDNDTESTAL
# B2: ABCC4, O15439 (peptide)
# chain: STLTIFETAL
# Key:
# Experiment in all cases: holdup assay
# Parameters in all cases: key: below the threshold = too weak to quantify, mostly under pKd 3.1 to 4
# Details in all cases: plain residues with an end cap or a label only (N-terminal biotin on a linker: ttds)
# [1] = target: AHNAK1, Q09666
# AHNAK1, Q09666, sequence (Q09666 4-100): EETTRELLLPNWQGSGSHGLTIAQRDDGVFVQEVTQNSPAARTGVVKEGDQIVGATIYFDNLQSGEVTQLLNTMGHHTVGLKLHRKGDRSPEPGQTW
# [2] = target: T1, APBA3_1, O96018
# [3] = target: ARHGEF12, Q9NZN5-2
# ARHGEF12, Q9NZN5-2, sequence (Q9NZN5 other isoform, or with tags, fused parts or gaps): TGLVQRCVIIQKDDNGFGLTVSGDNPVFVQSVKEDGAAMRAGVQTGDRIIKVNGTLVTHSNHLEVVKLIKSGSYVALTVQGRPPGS
# [4] = target: T2, DFNB31_1, Q9P202
# [5] = target: T3, DFNB31_3, Q9P202
# [6] = target: DLG2_2, Q15700
# DLG2_2, Q15700, sequence (Q15700 189-283): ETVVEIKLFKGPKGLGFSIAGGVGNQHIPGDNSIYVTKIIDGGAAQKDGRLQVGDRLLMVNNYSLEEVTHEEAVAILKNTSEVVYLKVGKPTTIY
# [7] = target: GORASP1, Q9BQQ3
# GORASP1, Q9BQQ3, sequence (Q9BQQ3 1-208): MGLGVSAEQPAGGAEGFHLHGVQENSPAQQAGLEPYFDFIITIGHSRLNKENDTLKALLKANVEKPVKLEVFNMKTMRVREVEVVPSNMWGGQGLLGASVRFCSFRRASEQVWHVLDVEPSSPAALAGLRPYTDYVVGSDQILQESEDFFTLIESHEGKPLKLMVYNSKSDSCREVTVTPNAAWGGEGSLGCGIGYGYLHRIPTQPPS
# [8] = target: GRID2IP_2, A4D2P6
# GRID2IP_2, A4D2P6, sequence (A4D2P6 272-370): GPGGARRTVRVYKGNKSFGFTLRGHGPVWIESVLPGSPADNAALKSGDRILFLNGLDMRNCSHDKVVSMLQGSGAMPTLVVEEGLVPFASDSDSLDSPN
# [9] = target: T4, GRIP1_2, Q9Y3R0
# [10] = target: T5, GRIP1_4, Q9Y3R0
# [11] = target: T6, GRIP1_7, Q9Y3R0
# [12] = target: GRIP2_4, Q9C0E4
# GRIP2_4, Q9C0E4, sequence (Q9C0E4 446-548): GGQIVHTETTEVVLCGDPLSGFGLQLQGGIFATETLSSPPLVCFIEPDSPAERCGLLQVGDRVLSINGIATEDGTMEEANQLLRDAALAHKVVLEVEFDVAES
# [13] = target: HTRA1, Q92743
# HTRA1, Q92743, sequence (Q92743 360-477): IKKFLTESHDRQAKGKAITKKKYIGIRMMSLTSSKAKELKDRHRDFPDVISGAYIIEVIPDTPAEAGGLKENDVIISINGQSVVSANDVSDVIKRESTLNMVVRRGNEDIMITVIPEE
# [14] = target: Inadl_3, Q8NI35
# Inadl_3, Q8NI35, sequence (Q8NI35 359-469): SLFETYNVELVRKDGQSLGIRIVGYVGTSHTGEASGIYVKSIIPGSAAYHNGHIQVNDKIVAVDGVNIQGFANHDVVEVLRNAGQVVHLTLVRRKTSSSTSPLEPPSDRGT
# [15] = target: LAP2, Q96RT1
# LAP2, Q96RT1, sequence (Q96RT1 other isoform, or with tags, fused parts or gaps): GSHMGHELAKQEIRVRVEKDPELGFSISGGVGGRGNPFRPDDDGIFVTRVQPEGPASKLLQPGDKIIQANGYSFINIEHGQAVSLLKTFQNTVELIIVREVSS
# [16] = target: LNX1_3, Q8TBB1
# LNX1_3, Q8TBB1, sequence (Q8TBB1 500-596): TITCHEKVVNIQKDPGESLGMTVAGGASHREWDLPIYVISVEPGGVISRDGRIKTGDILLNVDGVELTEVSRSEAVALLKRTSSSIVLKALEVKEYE
# [17] = target: MAST2, Q6P0Q8
# MAST2, Q6P0Q8, sequence (Q6P0Q8 1099-1202): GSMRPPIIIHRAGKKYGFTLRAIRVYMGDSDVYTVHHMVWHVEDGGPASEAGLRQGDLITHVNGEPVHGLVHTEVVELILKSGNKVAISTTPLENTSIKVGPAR
# [18] = target: T7, MPDZ_5, O75970
# [19] = target: T8, MPP2, Q14168
# [20] = target: PICK1, Q9NRD5
# PICK1, Q9NRD5, sequence (Q9NRD5 17-115): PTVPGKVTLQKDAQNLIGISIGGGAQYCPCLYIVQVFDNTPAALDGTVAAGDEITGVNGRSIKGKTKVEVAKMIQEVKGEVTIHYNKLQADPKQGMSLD
# [21] = target: PTPN3, P26045
# PTPN3, P26045, sequence (P26045 505-587): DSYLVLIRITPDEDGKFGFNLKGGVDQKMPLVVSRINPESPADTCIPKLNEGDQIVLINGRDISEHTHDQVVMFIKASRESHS
# [22] = target: T9, SHANK1, Q9Y566
# [23] = target: T10, SIPA1L2, Q9P2F8
# [24] = target: T11, TIAM2, Q8IVF5
# [25] = target: TJP2_1, Q9UDY2
# TJP2_1, Q9UDY2, sequence (Q9UDY2 24-128): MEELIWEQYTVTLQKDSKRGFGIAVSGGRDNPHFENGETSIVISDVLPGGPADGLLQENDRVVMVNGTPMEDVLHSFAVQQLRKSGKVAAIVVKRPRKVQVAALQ
# [26] = target: T12, TJP3_3, O95049
Binder,pKd [1],pKd [2],pKd [3],pKd [4],pKd [5],pKd [6],pKd [7],pKd [8],pKd [9],pKd [10],pKd [11],pKd [12],pKd [13],pKd [14],pKd [15],pKd [16],pKd [17],pKd [18],pKd [19],pKd [20],further results
B1,below the threshold,below the threshold,4.77,3.84,below the threshold,below the threshold,below the threshold,4.87,below the threshold,below the threshold,3.51,below the threshold,3.65,below the threshold,below the threshold,below the threshold,below the threshold,below the threshold,below the threshold,below the threshold,pKd [21]: 4.76; pKd [22]: 5.53; pKd [23]: below the threshold; pKd [24]: below the threshold; pKd [25]: below the threshold; pKd [26]: below the threshold
B2,below the threshold,below the threshold,5.21,4.63,below the threshold,4.15,below the threshold,4.36,below the threshold,below the threshold,below the threshold,below the threshold,below the threshold,4,4.57,below the threshold,5.92,below the threshold,below the threshold,below the threshold,pKd [21]: 5.11; pKd [22]: 5.1; pKd [23]: below the threshold; pKd [24]: below the threshold; pKd [25]: below the threshold; pKd [26]: below the threshold
